Measured values published in patent US20230136252A1 (NANJING LEGEND BIOTECH, published 2023).

Tests used:
[1] = target: T1, recombinant human GPC1-His (human, UniProt P35052 24-530, limits assumed); assay: ELISA, plate coated with 2 ug/mL rhGPC1-his, VHH-hIgG1Fc detected with HRP goat anti-human IgG, OD450
T1 construct: Bought protein; also called RD System Cat #4519-GP; not shown: His tag
T1 sequence (looked up): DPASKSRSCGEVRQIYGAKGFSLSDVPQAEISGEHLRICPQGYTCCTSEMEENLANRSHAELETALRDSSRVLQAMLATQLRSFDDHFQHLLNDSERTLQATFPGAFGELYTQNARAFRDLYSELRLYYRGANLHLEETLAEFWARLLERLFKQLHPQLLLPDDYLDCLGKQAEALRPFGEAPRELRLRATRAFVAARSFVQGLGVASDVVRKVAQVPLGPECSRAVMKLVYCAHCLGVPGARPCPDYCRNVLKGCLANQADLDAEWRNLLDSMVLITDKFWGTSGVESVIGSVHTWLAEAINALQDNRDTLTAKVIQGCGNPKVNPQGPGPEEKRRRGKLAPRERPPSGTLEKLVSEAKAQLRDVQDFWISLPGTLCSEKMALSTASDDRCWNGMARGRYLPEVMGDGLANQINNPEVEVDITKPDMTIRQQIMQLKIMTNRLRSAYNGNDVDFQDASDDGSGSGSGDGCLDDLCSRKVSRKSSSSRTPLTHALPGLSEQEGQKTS
Experimental: (§1) To evaluate the specificity of humanized anti-GPC2 VHH5 to recombinant human GPC2 protein, an ELISA-based binding assay was conducted to determine the differential target proteins binding of anti-GPC2 VHH5. Briefly, microplates were coated with 2 μg/mL recombinant human GPC1-His (RD System, Cat #4519-GP), GPC2-His (RD System, Cat #2304-GP), GPC3-His (ACRO, Cat #GP3-H5223), GPC4-Fc (RD System, Cat #9195-GP), GPC5-His (RD System, Cat #2607-G5/CF), GPC6-His (RD System, Cat #2845-GP) or recombinant mouse GPC2-His (RD System, Cat #2355-GP) proteins. Recombinant human protein coated plates were blocked with skim milk. Serially diluted humanized VHH-hIgG1Fc recombinant antibodies were added to each well of the plates and incubated at 4° C. for 1.5 h. Samples were further labelled with HRP-conjugated goat anti human IgG (H+L) secondary antibody (Genescript, Cat #A00166-1) and signal was developed with 3,3′,5,5′-Tetramethylbenzidine (TMB) substrate according to manufacturer's instruction. For the GPC4, VHH-His recombinant antibodies and anti-His tag secondary antibody (Genescript, Cat #A00612) were added to the GPC4-Fc coated plates instead. Optic density at 450 nm was measured by plate reader.

[2] = target: T2, recombinant human GPC3-His (human, UniProt P51654 25-559); assay: ELISA, plate coated with 2 ug/mL rhGPC3-his, VHH-hIgG1Fc detected with HRP goat anti-human IgG, OD450
T2 construct: Bought protein; also called ACRO Cat #GP3-H5223; not shown: His tag
T2 sequence (P51654 25-559 limits assumed): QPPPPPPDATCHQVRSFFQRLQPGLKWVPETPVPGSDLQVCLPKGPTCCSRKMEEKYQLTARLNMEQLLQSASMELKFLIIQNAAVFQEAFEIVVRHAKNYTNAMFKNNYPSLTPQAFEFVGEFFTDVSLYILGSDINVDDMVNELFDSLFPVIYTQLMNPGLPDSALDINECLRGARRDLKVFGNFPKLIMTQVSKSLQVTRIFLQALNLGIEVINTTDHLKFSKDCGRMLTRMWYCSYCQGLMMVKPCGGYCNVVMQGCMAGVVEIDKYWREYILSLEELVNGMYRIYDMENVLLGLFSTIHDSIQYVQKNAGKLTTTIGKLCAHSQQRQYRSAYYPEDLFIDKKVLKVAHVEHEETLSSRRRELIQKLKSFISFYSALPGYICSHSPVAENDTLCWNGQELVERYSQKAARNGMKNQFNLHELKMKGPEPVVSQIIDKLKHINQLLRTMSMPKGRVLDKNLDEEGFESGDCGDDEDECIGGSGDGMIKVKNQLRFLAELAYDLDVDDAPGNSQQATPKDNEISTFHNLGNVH
Experimental: as §1

[3] = target: T3, recombinant human GPC5-His (human, UniProt P78333 25-551, limits assumed); assay: ELISA, plate coated with 2 ug/mL rhGPC5-his, VHH-hIgG1Fc detected with HRP goat anti-human IgG, OD450
T3 construct: Bought protein; also called RD System Cat #2607-G5/CF; not shown: His tag
T3 sequence (looked up): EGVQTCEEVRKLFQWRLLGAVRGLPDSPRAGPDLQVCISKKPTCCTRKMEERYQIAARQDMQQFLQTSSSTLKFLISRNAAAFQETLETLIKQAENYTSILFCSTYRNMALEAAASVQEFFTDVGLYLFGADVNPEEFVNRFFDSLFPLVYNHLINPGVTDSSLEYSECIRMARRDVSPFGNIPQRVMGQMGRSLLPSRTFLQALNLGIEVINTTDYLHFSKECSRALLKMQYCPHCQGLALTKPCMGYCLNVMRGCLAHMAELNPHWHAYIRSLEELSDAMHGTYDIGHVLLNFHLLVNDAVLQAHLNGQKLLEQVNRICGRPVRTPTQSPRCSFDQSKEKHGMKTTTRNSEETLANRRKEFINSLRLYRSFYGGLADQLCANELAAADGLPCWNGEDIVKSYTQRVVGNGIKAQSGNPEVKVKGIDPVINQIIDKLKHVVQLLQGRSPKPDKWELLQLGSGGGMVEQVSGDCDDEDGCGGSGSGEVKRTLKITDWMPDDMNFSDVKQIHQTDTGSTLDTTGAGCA
Experimental: as §1

[4] = target: T4, recombinant human GPC6-His (human, UniProt Q9Y625 24-529, limits assumed); assay: ELISA, plate coated with 2 ug/mL rhGPC6-his, VHH-hIgG1Fc detected with HRP goat anti-human IgG, OD450
T4 construct: Bought protein; also called RD System Cat #2845-GP; not shown: His tag
T4 sequence (looked up): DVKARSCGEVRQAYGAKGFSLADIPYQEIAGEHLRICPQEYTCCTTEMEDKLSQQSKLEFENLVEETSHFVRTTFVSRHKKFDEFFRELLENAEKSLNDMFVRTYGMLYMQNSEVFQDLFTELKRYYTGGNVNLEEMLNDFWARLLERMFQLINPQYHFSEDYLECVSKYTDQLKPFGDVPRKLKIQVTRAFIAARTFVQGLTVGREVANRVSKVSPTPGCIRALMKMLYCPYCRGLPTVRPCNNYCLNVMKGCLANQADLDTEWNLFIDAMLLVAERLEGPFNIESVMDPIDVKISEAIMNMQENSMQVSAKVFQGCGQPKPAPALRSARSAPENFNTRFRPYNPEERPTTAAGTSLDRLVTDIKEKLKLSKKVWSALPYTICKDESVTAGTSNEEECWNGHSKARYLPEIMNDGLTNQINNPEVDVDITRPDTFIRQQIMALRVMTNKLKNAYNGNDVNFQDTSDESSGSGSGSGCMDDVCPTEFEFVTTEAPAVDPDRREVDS
Experimental: as §1

Measured: binding result

B1: AS70950VH6-hIgG1Fc (Fc fusion)
chain: EVQLVESGGGLVQPGGSLRLSCAISEFTYKNTCVGWFRQAPGKGREGVAAIDSDGNTNYVDSVKGRFTISQDNSKNTVYLQMNSLRAEDTAMYYCAAGAYCGRLLLWIGNYAYWGQGTLVTVSS
notes: also called anti-GPC2 VHH-hIgG1Fc; not shown: human IgG1 Fc fragment (hIgG1Fc)
no binding (tested: about 300 nM): [1] | [2] | [3] | [4]

B2: AS78117VH4-hIgG1Fc (Fc fusion)
chain: EVQLVESGGGLVQPGGSLRLSCIVSRYTYATYSMAWFRQAPGKGLEGVSGLDSVGATGYAESVKGRFTISRDNSKNTLYLQMNSLRAEDTAVYYCVVDPASAKVTYGSWSTPSYAYWGQGTLVTVSS
notes: as for B1
no binding (tested: about 300 nM): [1] | [2] | [3] | [4]

B3: AS79236VH6-hIgG1Fc (Fc fusion)
chain: EVQLVESGGGLVQPGGSLRLSCAVSGYTYSSYCMAWFRQAPGKGLEGVASIDAGGRTTYVDSVKGRFTISKDNAKNSLYLQMNSLRAEDTAMYYCAVDVRTRCGGTWDGEAVYFPYWGQGTLVTVSS
notes: as for B1
no binding (tested: about 300 nM): [1] | [2] | [3] | [4]
